In patent publication US9228020B2, “Compositions and methods for diagnosing and treating cancer” (OncoMed Pharmaceuticals, Inc., priority 2006, dated 2016):

Target: T1, DLL4 antigen (Homo sapiens, UniProt Q9NR61)
T1 construct: DLL4 antigen protein comprises approximately amino acid 27 through amino acid 522; made in house; host or cells: insect cells (baculovirus)
Experiment: ELISA of conditioned media for DLL4 antigen binding (humanized variants)
Settings: conditioned media of cotransfected HEK293 cells
Description: The functionality of each candidate variant humanized heavy and light chain was tested by cotransfection into mammalian cells. Each of the five candidate humanized 21M18 heavy chains described above was cotransfected with the murine 21M18 light chain cDNA into HEK 293 cells, and conditioned media was then assayed for DLL4 antigen binding activity by ELISA. […] This variant—“21M18 H2”—contained, in additional to murine CDRs, murine residues at five framework positions, Kabat positions 20, 28, 38, 48, and 69 (FIG. 4). The 21M18 H2 humanized heavy chain was then cotransfected with each of the five candidate humanized light chains into HEK293 cells, and conditioned media was again assayed for antigen binding by ELISA.
Next, the isolated cysteine residue in CDR2H2 (SEQ ID NO: 2) was altered. Specifically, two heavy chain variants of H2 were synthesized with the cysteine residue at Kabat position 52a modified to a serine (variant H7; SEQ ID NO: 3) or a valine (variant H9; SEQ ID NO: 4) residue. These heavy chains were cotransfected into HEK293 cells with L2, and conditioned media was again assayed. […] Thus 21M18 heavy chain CDR2 comprises SEQ ID NO: 2, 3, or 4 in which the residue at Kabat position 52a comprises a cysteine, serine, or valine residue.

T1 sequence (Q9NR61 27-522): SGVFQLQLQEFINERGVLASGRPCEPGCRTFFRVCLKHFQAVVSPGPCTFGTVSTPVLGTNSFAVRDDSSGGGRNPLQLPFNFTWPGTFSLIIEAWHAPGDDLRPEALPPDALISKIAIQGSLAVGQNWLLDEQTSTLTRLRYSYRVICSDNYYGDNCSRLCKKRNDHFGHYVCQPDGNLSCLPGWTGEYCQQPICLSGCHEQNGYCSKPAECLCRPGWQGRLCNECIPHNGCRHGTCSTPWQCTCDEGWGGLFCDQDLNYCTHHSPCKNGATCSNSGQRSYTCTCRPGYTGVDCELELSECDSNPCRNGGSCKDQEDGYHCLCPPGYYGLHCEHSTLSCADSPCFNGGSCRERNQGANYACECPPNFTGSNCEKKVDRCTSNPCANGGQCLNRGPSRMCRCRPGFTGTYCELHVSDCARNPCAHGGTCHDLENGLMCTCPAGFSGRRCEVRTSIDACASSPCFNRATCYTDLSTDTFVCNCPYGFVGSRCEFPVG

antigen binding by ELISA	Molecule
demonstrated specific antigen binding	21M18 H7L2: humanized 21M18, heavy chain Kabat position 52a serine (H7) with L2; ATCC deposit no. PTA-8425 (antibody, V domains shown) VH: QVQLVQSGAEVKKPGASVKISCKASGYSFTAYYIHWVKQAPGQGLEWIGYISSYNGATNYNQKFKGRVTFTTDTSTSTAYMELRSLRSDDTAVYYCARDYDYDVGMDYWGQGTLVTVSS VL: DIVMTQSPDSLAVSLGERATISCRASESVDNYGISFMKWFQQKPGQPPKLLIYAASNQGSGVPDRFSGSGSGTDFTLTISSLQAEDVAVYYCQQSKEVPWTFGGGTKVEIK
demonstrated specific antigen binding	21M18 H9L2: humanized 21M18, heavy chain Kabat position 52a valine (H9) with L2; ATCC deposit no. PTA-8427 (antibody, V domains shown) VH: QVQLVQSGAEVKKPGASVKISCKASGYSFTAYYIHWVKQAPGQGLEWIGYISVYNGATNYNQKFKGRVTFTTDTSTSTAYMELRSLRSDDTAVYYCARDYDYDVGMDYWGQGTLVTVSS VL: DIVMTQSPDSLAVSLGERATISCRASESVDNYGISFMKWFQQKPGQPPKLLIYAASNQGSGVPDRFSGSGSGTDFTLTISSLQAEDVAVYYCQQSKEVPWTFGGGTKVEIK
